For 1 molecule, RU (at 100 nM) and Relevant binding to WT IL2 (%) results are on record in patent US20230002466A1.

The target in this test is human IL2Rα (human) (UniProt P01589). Kind of test: SPR, IL2Rα captured on Protein A chip, IL2 at 100 nM.
Chain of human IL2Rα (human) (P01589 22-213 limits assumed): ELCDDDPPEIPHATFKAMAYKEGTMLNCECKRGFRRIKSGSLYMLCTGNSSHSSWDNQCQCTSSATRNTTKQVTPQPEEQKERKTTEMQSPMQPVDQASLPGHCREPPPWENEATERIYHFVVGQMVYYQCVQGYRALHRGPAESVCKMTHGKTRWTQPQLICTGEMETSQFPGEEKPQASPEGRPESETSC

B1: EP225 (ligand)
chain: APTSSSTKKTQLQLEHLLLDLQMILNGINNYKNPKLTRMLTAKFYMPKKATELKHLQCLEEELKPLEEVLNLAQSKNFHLTARDAVDNMRVIIQELKGSETTFMCEYADETATIVEFLNRWITFSQSIISTLTGSHHHHHH
As to B1, the RU (at 100 nM) is 7.4 RU and the Relevant binding to WT IL2 (%) turned out to be 5.21%.
